Data reported in patent publication US20210061908A1 (IOMX THERAPEUTICS, published 2021).

T1: extracellular domain (ECD) of murine IGSF11, biotinylated (mouse, UniProt P0C673 23-240, biotinylated (site not stated))
T1 construct: also called Mouse IGSF11; murine IGSF11 protein
T1 sequence: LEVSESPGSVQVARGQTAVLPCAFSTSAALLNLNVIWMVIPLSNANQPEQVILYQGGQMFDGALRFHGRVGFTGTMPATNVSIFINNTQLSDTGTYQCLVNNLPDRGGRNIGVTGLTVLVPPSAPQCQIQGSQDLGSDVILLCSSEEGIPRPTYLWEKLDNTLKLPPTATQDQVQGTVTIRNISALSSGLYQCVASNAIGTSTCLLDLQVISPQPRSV

T2: extracellular domain (ECD) of human IGSF11 (VSIG3), biotinylated (human, UniProt Q5DX21 23-241, biotinylated (site not stated))
T2 construct: also called human IGSF11 protein
T2 sequence: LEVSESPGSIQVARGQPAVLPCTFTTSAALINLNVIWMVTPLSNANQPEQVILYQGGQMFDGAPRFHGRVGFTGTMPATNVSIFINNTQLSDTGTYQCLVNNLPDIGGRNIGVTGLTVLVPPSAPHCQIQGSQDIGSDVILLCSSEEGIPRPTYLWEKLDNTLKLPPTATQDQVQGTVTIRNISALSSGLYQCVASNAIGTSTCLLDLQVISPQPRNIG


Tests used:
[1] = biological target: T1, extracellular domain (ECD) of murine …; assay: ELISA, scFv; RFU grade (*** >1.0, ** 0.5-1.0, * 0.1-0.5)
[2] = biological target: T2, extracellular domain (ECD) of human …; assay: as above

relative fluorescent units (RFU), ELISA [1] | relative fluorescent units (RFU), ELISA [2] | Binder
> 1 rfu | 0.1 to 0.5 rfu | A-011 (scFv format) (scFv, V domains shown, scFv) VH: QVQLVESGGGVVQPGRSLRLSCAASGFTFSSYAMHWVRQAPGKGLEWVAVISYDGSNKYYADSVKGRFTISRDNSKNTLYLQMNSLRAEDTAVYYCAEGGALNYYGMDVWGQGTTVTVSS VL: SSELTQDPGVSVALGQTVRITCQGDSLRHFYATWYQQKPGQAPILVIYGKNNRPSGIPDRFSGSSSEDTASLTITGAQAEDEADYYCQSRDPRNNHLIFGGGTKLIVL
0.1 to 0.5 rfu | 0.5 to 1 rfu | A-023 (scFv format) (scFv, V domains shown, scFv) VH: QVQLVQSGAEVKKPGSSVKVSCKASGGTFSSYAISWVRQAPGQGLEWMGGIIPIFGTANYAQKFQGRVTITADESTSTAYMELSSLRSEDTAVYYCARPKYSSGWFYYYGMDVWGQGTTVTVSS VL: QSVLTQPPSVSAAPGQKVTISCSGSSSNIGNNYVSWYQQLPGTAPKLLIYDNNKRPSGIPDRFSGSKSGTSATLGITGLQTGDEADYYCGTWDSSLSVVFGGGTKLTVL
0.5 to 1 rfu | 0.5 to 1 rfu | A-015 (scFv format) (scFv, V domains shown, scFv) VH: not shown VL: QPVLTQSPSASASLGASVKLTCTLSSGHTNYAIAWRQQQPGKAPRYLMLLNSDGSHTRGGGIPDRFSGSSSGAERYLTISSLQSEDEADYYCMIWHNNAWVFGGGTKLAVL
0.1 to 0.5 rfu | 0.5 to 1 rfu | A-009 (scFv format) (scFv, V domains shown, scFv) VH: QVQLVQSGAEVKKPGSSVKVSCKASGGTFSSYAISWVRQAPGQGLEWMGGIIPIFGTANYAQKFQGRVTITADESTSTAYMELSSLRSEDTAVYYCARGRGFGELYFDYWGQGTLVTVSS VL: ETTLTQSPATLSVSPGERATLSCRASQGVRSNIAWYQQKPGQAPRLLIYDSSTRATGIPARFSGSGSGTEFTLTISSLQSEDFAVYSCQQYKNWPRTFGQGTKVEIK
0.1 to 0.5 rfu | 0.1 to 0.5 rfu | A-025 (scFv format) (scFv, V domains shown, scFv) VH: QVQLVQSGAEVKKPGSSVKVSCKASGGTFSSYAISWVRQAPGQGLEWMGGIIPIFGTANYAQKFQGRVTITADESTSTAYMELTSLRSEDTAVYYCARGGWLRQNWFDPWGQGTLVTVSS VL: SSELTQDPAVSVALGQTVRITCQGDSLRSYYASWYQQKPGQAPVLVIYGKNNRPSGIPDRFSGSSSGNTASLTITGAQAEDEADYYCNSRDSSGNHPRVFGGGTKLTVL
0.1 to 0.5 rfu | 0.5 to 1 rfu | A-014 (scFv format) (scFv, V domains shown, scFv) VH: QVQLVQSGAEVKKPGASVKVSCKASGYTFNDYYIHWVRQAPGQGLEWMGWFNPSTGGANYAQKFQGRVTMTRDTSISTAYLEVSSLRSDDTAVYYCARGNSPDLDYWGQGTLVTVSS VL: DIQMTQSPDSLTVSLGERATINCKSSQSLLHSSNNKNYLAWYQQRPGQPPKLLIYWASTRQSGVPDRFSGSGSGTDFTLTINSLQADDMAVYYCQQYYTTTPNTFGQGTKLEIK
> 1 rfu | > 1 rfu | A-008 (scFv format) (scFv, V domains shown, scFv) VH: QLQLQESGPGLVKPSETLSLTCTVSGGSISSSGYYWGWIRQPPGKGLEWIGSIYYSGSTYYNPSLKSRVTISVDTSKNQFSLKLSSVTAADTAVYYCARHRVRFGEFDAFDIWGQGTMVTVSS VL: QAVLTQPPSVSGAPGERVTLSCTGTSSNVGADFDVHWYQQFPGTAPRLLIFGSDNRPSGVPDRFSGSKSGTSASLAITGLQVEDEADYYCQAYDVRLSGWVFGGGTKLTVL
0.1 to 0.5 rfu | 0.1 to 0.5 rfu | A-003 (scFv format) (scFv, V domains shown, scFv) VH: VQLVQSGAEVKKPGSSVKVSCKASGGTFSSYAISWVRQAPGQGLEWMGGIIPIFGTANYAQKFQGRVTITADESTSTAYMELSSLRSEDTAVYYCASPRIQLWAAGGFDYWGQGTLVTVSS VL: QSALTQPASVSGSPGQSITISCTGTSSDVGGYNLVSWYQQHPGKAPKLMIYDVSNRPSGVSNRFSGSKSGNTASLTISGLQAEDEADYYCSSFTTSTTLVFGGGTKLTVL
> 1 rfu | 0.5 to 1 rfu | A-022 (scFv format) (scFv, V domains shown, scFv) VH: EVQLLESGPGLVKPSQTLSLTCTVSGGSISSGGYYWSWIRQHPGKGLEWIGYIYYSGSTYYNPSLKSRVTISVDTSKNQFSLKLSSVTAADTAVYYCARASRSTDYYFDYWGQGTLVTVSS VL: QPGLTQPPSMSYGLGQTATLTCTGNRNNIGDQGAAWLQQHQGHPPKLLSYRNNNGPSGISERLSASRSGNTASLTISGLQPEDEADYYCSAWDSSLRAWVFGGGTKLTVL
0.5 to 1 rfu | 0.5 to 1 rfu | A-010 (scFv format) (scFv, V domains shown, scFv) VH: QVQLVQSGAEVKKPGASVKVSCKASGYTFTSYGISWVRQAPGQGLEWMGWISAYNGNTNYAQKLQGRVTMTTDTSTSTAYMELRSLRSDDTAVYYCARVPAWSGQFDYWGQGTLVTVSS VL: QSALTQPASVSGSPGQSITISCTGSSSDVGGYNYVSWYQQYPGKAPKLMIYDVRSRPSGVSNRFSGSKSGNTASLTISGLQAEDEADYYCTSYTSSNTLVIFGGGTKVTVL
0.1 to 0.5 rfu | 0.5 to 1 rfu | A-021 (scFv format) (scFv, V domains shown, scFv) VH: QVQLVQSGAEVKKPGASVKVSCKASGYTFTSYGISWVRQAPGQGLEWMGWISAYNGNTNYAQKLQGRVTMTTDTSTSTAYMELRSLRSDDTAVYYCARVPAWSGQFDYWGQGTLVTVSS VL: QSALTQPASVSGSPGQSITISCTGTSSDVGGYNYVSWYQQHPGKAPKLMIYEVTNRPSGVSDRFSGSKSANTASLTISELQAEDEAVYYCNSYTSGPTYVLFGGGTQLTVL
0.1 to 0.5 rfu | 0.5 to 1 rfu | A-024 (scFv format) (scFv, V domains shown) VH: QMQLVQSGAEVKKPGSSVKVSCKASGGTFSSYAISWVRQAPGQGLEWMGWISAYNGNTNYAQKLQGRVTMTTDTSTSTAYMELRSLRSDDTAVYYCASLGSYGYTGAFDIWGQGTMATVSS VL: QSALTQPASVSGSPGQSITISCTGTSSDVGGYNYVSWYQQHPGKAPKLMIYEVSNRPSGVSNRFSGSKSGNTASLTISGLQAEDEADYYCSSYTSSSTLVVFGGGTKLTVL
0.1 to 0.5 rfu | 0.5 to 1 rfu | A-017 (scFv format) (scFv, V domains shown, scFv) VH: QVQLVQSGAEVKKPGASVKVSCKASGYTFTGYYMHWVRQAPGQGLEWMGWINPNSGNTGYAQKFQGRVTMTRNTSISTAYMELSSLRSEDTAVYYCARGGQQQLVLDDYWGQGTLVTVSS VL: DIVLTQSPASLSASVGDRITITCQASQDIRHHLNWFQHKPGKAPKLLISDSSNLETGVPSRFSGSGSGTDFSFTISRLQPEDIATYYCQQYDSLPRTFGQGTKLEIK
0.5 to 1 rfu | > 1 rfu | A-019 (scFv format) (scFv, V domains shown, scFv) VH: QVQLVQSGAEVKKPGASVKVSCKASGYTFTGYYMHWVRQAPGQGLEWMGWINPNSGNTGYAQKFQGRVTMTRNTSISTAYMELSSLRSEDTAVYYCARGGQQQLVLDDYWGQGTLVTVSS VL: not shown
0.5 to 1 rfu | > 1 rfu | A-016 (scFv format) (scFv, V domains shown, scFv) VH: QVQLQESGAEVKKPGASVKVSCKASGYTFTGYYMHWVRQAPGQGLEWMGGIIPIFGTANYAQKFQGRVTITADESTSTAYMELSSLRSEDTAVYYCAGAGMELTRSGAYYYYGMDVWGQGTTVTVSS VL: QSALTQPASVSGSPGQSITISCTGTSSDIGGYTFVSWYQQHPGKAPKVMIHDVNNRPSGISNRFSGSKSGNTASLTISGLQAEDEADYYCSSVTSTNTYVFGTGTKVTVL
